Data on four substances can be found in patent publication US20180207291A1.

The target in experiment [1] is Human Enolase 241cit peptide as offered to human PBMCs (human).
Experiment [2] concerns the target Human Enolase 241 wt peptide as offered to human PBMCs (human).
For experiment [3], the target named is Human Enolase 241cit peptide as offered to human PBMCs (human). This is another data set of the same source.
Experiment [4] has as its target Mouse Enolase 241-260 citrullinated peptide presented by HLA-DR4 (mouse; human).

Like-named read-outs stand apart in the source and are kept apart here.

Consider “PBMCs of healthy donor 1 (cells without a defined receptor)”, for which the figures for the Thymidine proliferation assay, proliferation index (proliferation index) in experiment [1] and in experiment [2] were 28.6 and 1.2, respectively.

As for “PBMCs of healthy donor 2 (cells without a defined receptor)”, in experiment [1], the Thymidine proliferation assay, proliferation index (proliferation index) is 2.7.

Turning to “PBMCs of healthy donor 4 (cells without a defined receptor)”, the Thymidine proliferation assay, proliferation index (proliferation index) in experiment [3] was found to be 28.

“Splenocytes of HLA-DR4 transgenic mice immunised with a DNA construct encoding mouse enolase (cells without a defined receptor)” came in with an IFNγ Elispot (/million splenocytes) in experiment [4] of 180.
